This experiment can be described thus: Estimation of binding affinity by Octet. The text has this: Murine R24 (mR24) is a murine antibody that binds GD3 (SEQ ID NOs: 17 and 19). To minimize the risk of immunogenicity, an attempt was made to humanize mR24 for further therapeutic development. An earlier attempt to humanize mR24 is disclosed in WO2008/101234. The CDRs of murine antibody mR24 were identified using Kabat. Humanization of mR24 was first attempted using the semi-empirical framework shuffle approach. In this approach, human germline frameworks with a high degree of homology with mR24 sequences, VL frameworks V1-12 and V3-11 and VH framework V3-7, were selected. The selected frameworks were then used as the acceptor framework for mR24 without any backmutations in the framework region. The CDRs of mR24 were then inserted into the acceptor frameworks, and antibody proteins were generated and assessed for their expression yield, purification properties, and GD3 target binding activity. After screening, two advanced humanization variants with high GD3 binding activity, overall expression yields, and stability, hAb 21 (SEQ ID NOs: 30 and 31, VL framework V3-11 and VH framework V3-7) and hAb3 (SEQ ID NOs: 32 and 33, VL framework V1-12 and VH framework V3-7), were further evaluated for their aggregation level after purification.

Setting [1] is: antibody concentrated (Ab 3 21.2 mg/ml, hAb 21 27.8 mg/ml), in Tier-1 buffer.

Read-outs that look alike come from different tables or passages of the source.

B1: KM871: chR24 (hAb.51) chimeric version (hIgG1, kappa) of KM641 (SEQ ID NOs: 28 and 29) (antibody, V domains shown)
VH: EVTLVESGGDFVKPGGSLKVSCAASGFAFSHYAMSWVRQTPAKRLEWVAYISSGGSGTYYSDSVKGRFTISRDNAKNTLYLQMRSLRSEDSAMYFCTRVKLGTYYFDSWGQGTTLTVSS
VL: DIQMTQTASSLPASLGDRVTISCSASQDISNYLNWYQQKPDGTVKLLIFYSSNLHSGVPSRFSGGGSGTDYSLTISNLEPEDIATYFCHQYSKLPWTFGGGTKLEIK
Turning to B1, the Kd was 9.02 nM, the Kdis was 0.00596 s⁻¹ and the Kon was 1.33e+06 M⁻¹ s⁻¹.

B2: hAb 3: fully humanized mR24 based on framework shuffle (SEQ ID NOs: 32 and 33, VL framework V1-12 and VH framework V3-7) (antibody, V domains shown)
VH: EVQLVESGGGLVQPGGSLRLSCAASGFTFSNFGMHWVRQAPGKGLEWVAYISSGGSSINYADTVKGRFTISRDNAKNSLYLQMNSLRAEDTAVYYCARGGTGTRSLYYFDYWGQGTLVTVSS
VL: DIQMTQSPSSVSASVGDRVTITCRASQDIGNFLNWYQQKPGKAPKLLIYYTSRLQSGVPSRFSGSGSGTDFTLTISSLQPEDFATYYCQQGKTLPYTFGGGTKVEIK
On to B2, for which, under setting [1], the Kd is 59.7 nM, the Kdis was 0.00278 s⁻¹ and the Kon was 75400 M⁻¹ s⁻¹. Also, under “antibody dialyzed in PBS”, the Kd is 55.8 nM, the Kdis was 0.00144 s⁻¹ and the Kon was 37700 M⁻¹ s⁻¹.

B3: hAb 21: fully humanized mR24 based on framework shuffle (SEQ ID NOs: 30 and 31, VL framework V3-11 and VH framework V3-7) (antibody, V domains shown)
VH: B2 VH
VL: EIVLTQSPATLSLSPGERATLSCRASQDIGNFLNWYQQKPGQAPRLLIYYTSRLQSGIPARFSGSGSGTDFTLTISSLEPEDFAVYYCQQGKTLPYTFGGGTKVEIK
Take B3: under setting [1], the Kd was 31.1 nM, the Kdis is 0.00111 s⁻¹ and the Kon is 44600 M⁻¹ s⁻¹. For the setting “antibody dialyzed in PBS”, the Kd is 28.9 nM, the Kdis was 0.00136 s⁻¹ and the Kon was 59700 M⁻¹ s⁻¹.

The record behind these values is US20190048073A1, “ANTI-GD3 ANTIBODIES AND ANTIBODY-DRUG CONJUGATES” (Pfizer Inc., priority 2017, published 2019).
